Sequences and labels used below:
B1: ZR-ELP (arginine-rich leucine zipper motif ZR fused with an elastin-like polypeptide) (other)
chain: MKGSLEIRAAALRRRNTALRTRVAELRQRVQRLRNEVSQYETRYGPLGGGGSGGGGSGVPGVGVPGVGVPGFGVPGVGVPGVGVPGVGVPGVGVPGFGVPGVGVPGVGVPGVGVPGVGVPGFGVPGVGVPGVGVPGVGVPGVGVPGFGVPGVGVPGVGVPGVGVPGVGVPGFGVPGVGVPGVGVPGC
notes: Forms ZR/ZR homodimers when no ZE partner is present

Data set [1] concerns the molecule itself. Nature of the data set: solution at 4 C; circular dichroism confirmed the coiled coil. Here is the method:
The CD spectra of protein complexes were recorded on a Jasco J-810 spectropolarimeter (JASCO). Protein solution samples were prepared in PBS (pH 7.4), and measurements were performed in a 0.2 cm-length cuvette. The spectra were obtained in 1 nm increments within a wavelength range of 200-300 nm. Mean residue ellipticity was measured from protein solutions containing 5 μM of protein complexes at 4° C. Mean residue ellipticity was converted from accumulated spectra of five measurements for each sample. The peak at a wavelength of 222 nm indicated presence of α-helical coiled-coils of ZR/ZR and ZE/ZR.
(CD spectra are sensitive to the conformation of chiral molecules.)

Data set [2] concerns the target B1. Nature of the data set: co-expression in E. coli. The text has this:
to prevent degradation during expression (Park W M, et al., Angew. Chem. Int. Ed., 52 (31), 8098-8101 (2013); Zhang K, et., Chem Bio Chem, 10 (16), 2617-2619 (2009)). Co-expressed ZR-ELP, i.e. the fusion peptide having an amino acid sequence of […](G₄S)₂G[(VPGVG)₂VPGFG(VPGVG)₂]₅VPGC (SEQ ID NO:27) and His₆ZE form a protein complex His₆ZE/ZR-ELP, which is resistant to proteolysis in the cytoplasm. All plasmids (pQE60-His₆ZE/ZR-ELP, pQE60-mCherry-ZE, and pQE60-EGFP-Z₅) were transformed into E. coli strain AFIQ-BL21 for expression. All cell cultures were grown at 37° C. in 2× yeast extract and tryptone (YT) media containing ampicillin (200 mg/L) and chloramphenicol (34 mg/L). When the cell culture optical density at 600 nm reached 0.8, protein expression was induced by 1.0 mM of isopropylβ-thiogalactoside (IPTG). Cells were harvested by centrifugation after 5 hours of expression at 37° C.

With B1, in data set [1], the binding result is on record as “binds”.

B2: His6-tagged ZE (peptide)
peptide: LEIEAAALEQENTALETEVAELEQEVQRLENIVSQYRTRYGPLRSHHHHHH
notes: It was co-expressed with ZR-ELP; also called His6ZE; His6-ZE
On to B2, for which the binding result in data set [2] was “binds”.

These data come from patent US20160158154A1 (GEORGIA TECH RESEARCH, published 2016).
